One block for each substance: values may come before it.
Experiments:
Assay in all cases: SEC
[1] = biological target: bimodular construct 25 (MAT-ACP didomain fused to full-length mFAS) (Mus musculus) (UniProt P19096)
[2] = biological target: mFAS alpha-module, construct 17 (KS-MAT-ACP, mFAS sequences only) (Mus musculus)
[3] = biological target: mFAS alpha-module, construct 22 (KS-MAT-ACP-TE, mFAS sequences only) (Mus musculus)
[4] = biological target: mFAS delta-module, construct 6 (2-2195) (Mus musculus) (UniProt P19096)
[5] = biological target: murine fatty acid synthase (mFAS) (Mus musculus) (UniProt P19096); settings: remark: other sources report otherwise

stoichiometry N [1]: 2
Substance: bimodular construct 25 (MAT-ACP didomain fused to full-length mFAS) (from UniProt P19096 1-2504)

stoichiometry N [2]: 2
Substance: mFAS alpha-module, construct 17 (KS-MAT-ACP, mFAS sequences only) (domain or fragment)

stoichiometry N [3]: 2
Substance: mFAS alpha-module, construct 22 (KS-MAT-ACP-TE, mFAS sequences only) (domain or fragment)

stoichiometry N [4]: 2
Substance: mFAS delta-module, construct 6 (2-2195), P19096 2-2195

stoichiometry N [5]: 2
Substance: murine fatty acid synthase (mFAS), P19096 1-2504
